Measured values published in the supplement of paper PMC9170038.

Tested on: MS2 coat protein
Test: apparent KD of MS2 coat protein; designed switch direction (-1 OFF switch, 1 ON switch): 1; higher = weaker reporter binding
Outline: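 Three titration conditions were used: no input, 200 uM small-molecule ligand, and an oligonucleotide input. In each, SNAP-549-labelled MS2 coat protein was raised from 0.7 or 1.5 nM, doubling, to 3 µM over designed RNA switches transcribed on Illumina chips by stalled E. coli RNA polymerase. Curve fits of normalised cluster fluorescence gave values whose per-design median over clusters is the apparent KD.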

[1] = Eterna round: R95, input ligand: FMN 200 uM
[2] = Eterna round: R95, input ligand: microRNA oligo, concentration not stated
[3] = Eterna round: R95, input ligand: none
[4] = input ligand: microRNA oligo, concentration not stated

Sequence | apparent KD of MS2 coat protein [1] [nM] | apparent KD of MS2 coat protein [2] [nM] | apparent KD of MS2 coat protein [3] [nM] | apparent KD of MS2 coat protein (input ligand: FMN 200 uM) [nM] | apparent KD of MS2 coat protein [4] [nM] | apparent KD of MS2 coat protein (input ligand: none) [nM]
UCUUGGUUUUUGCUCGUUUUUUGUGUUGAACAUGAGGAUCACCCAUGUAUUGUACAGUCCAAUUUAAUAAUGGUCCA [JMF 4] (puzzle: Sensor for hsa-mir-208a) | 34.2 | 27.9 | 41.6 | – | – | –
UCUUGGUUUUUGCUCGUUUUUUGUGUUGAACAUGAGGAUCACCCAUGUAUUGUACGGUCCAAUUUAAUAGUGGUCCG [JMF 24] (puzzle: Sensor for hsa-mir-208a) | 25.5 | 15.3 | 28 | – | – | –
UCUUGGUUUUUGCUCGUUUUUUGUGUUGAACAUGAGGAUCACCCAUGUAUUGUACGGUCCGAUUUAAUAGUGGUCCG [JMF 19] (puzzle: Sensor for hsa-mir-208a) | 24.4 | 14.8 | 27 | – | – | –
UCUUGGUUUUUGCUCGUUUUUUGUGUUGAACAUGAGGAUCACCCAUGUAUUGUACGGUCCGGUUUGAUAGUGGUCCG [JMF 15] (puzzle: Sensor for hsa-mir-208a) | 26.3 | 16.2 | 31.3 | – | – | –
UGAACCGUCACAGGAUAUCAUGCGAAAAUUGCGUGAGAAGGGUGGAUGUUGUGUUCAAAGAUGUACAUGAGGAUCACCCAUGUU [SameState NG1 #47] (Eterna round: R96, puzzle: Same State NG 1) | – | – | – | 61 | 85.7 | 170
UGAACCGUCACAGGAUAUCAUGCGAAAAUUGCGUGAGAAGGGUGGAUGUUGUGUUCAAAGUUAUACAUGAGGAUCACCCAUGUU [SameState NG1 #46] (Eterna round: R96, puzzle: Same State NG 1) | – | – | – | 29.8 | 45.8 | 65.5
UGAAUAGUCACAGGAUAUCAUGCGAAAAUUGCGUGAGAAGGGUGGAUGUUGUGCUCAAAGUGCUACAUGAGGAUCACCCAUGUU [SameState NG1 #42] (Eterna round: R96, puzzle: Same State NG 1) | – | – | – | 337 | 234 | 187
UGAAUAGUUACAGGAUAUCAUGCGAAAAUUGCGUGAGAAGGGUGGGUGUUGUGCGCAAAGUGCUACAUGAGGAUCACCCAUGUU [SameState NG1 #39] (Eterna round: R96, puzzle: Same State NG 1) | – | – | – | 278 | 23.1 | 277
UGAAUGAUGAUAGGAUAUACAUGAGGAAUCCUCGUAGAAGGAUCAUGACAUGAGGAUCACCCAUGUAGCGCUCCGUAGAGCGCA [JL SSNG1 1.20] (Eterna round: R96, puzzle: Same State NG 1) | – | – | – | 561 | 30.7 | 151
UGACACACGGCAGGAUAUCGAUAGCAAAGCUAUCGAGAAGGGCCUCAUGUCGUGGAAACGUGACAUGAGGAUCACCCAUGUCGC [Omei SS(NG)1 Cv12] (Eterna round: R96, puzzle: Same State NG 1) | – | – | – | 72 | 12.6 | 26.6
UGACACACGGCAGGAUAUCGAUUCCAAAGGAAUCGAGAAGGGCCUCAUGUCGUGGAAACGUGACAUGAGGAUCACCCAUGUCGC [Omei SS(NG)1 Cv16] (Eterna round: R96, puzzle: Same State NG 1) | – | – | – | 65 | 3.72 | 64.2
UGCUAGUGGGUAGGAUAUUUAGGAUAUGGGAAAGACUAAGUCUGUAGGUCACCUAACCCAGAAGGAGAGAAGGACCCUUCAGCU [pwkr ssNG2 2FMN + F9.28] (Eterna round: R96, puzzle: Same State NG 2) | – | – | – | 1660 | 13.9 | 38.9
UGGAUCUAGGCUUGCCUGGGUCCAUGUUGACAUGAGGAUCACCCAUGUGUAUUUUUUAAGCUUUUUGUUUGUCAACU [JL A Humble Attempt mod 9] (puzzle: Sensor for hsa-mir-208a) | 28.3 | 12.5 | 29.3 | – | – | –
